US20130142788A1 (published 2013)
Read-outs that look alike come from different tables or passages of the source.

T1: recombinant mature dimeric myostatin (human and mouse (mature sequences 100% …, UniProt O08689 268-376))
T1 sequence: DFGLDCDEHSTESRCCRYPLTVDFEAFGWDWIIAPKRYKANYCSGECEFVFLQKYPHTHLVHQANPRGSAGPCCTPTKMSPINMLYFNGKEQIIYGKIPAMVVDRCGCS


How the values were obtained:
[1] = target: T1, recombinant mature dimeric myostatin; assay: cell-based or functional assay
[2] = target: T1, recombinant mature dimeric myostatin; assay: cell-based or functional assay; remark: listed apart in the source
[3] = target: T1, recombinant mature dimeric myostatin; assay: cell-based or functional assay; remark: listed apart in the source
[4] = target: T1, recombinant mature dimeric myostatin; assay: Kinexa solution phase affinity
Description: Kinexa (Sapidyne Instruments) solution phase affinity was used to determine the overall affinity for a range of anti-myostatin molecules. Myostatin beads were prepared either by adsorption (polymethylmethacrylate beads-PMMA) or amine coupling (NHS-activated sepharose beads). The range of anti-myostatin molecules studied necessitated the generation of beads coated with different concentrations of myostatin. For the solution phase portion of the assay, a fixed concentration of antibody was incubated with a broad range of myostatin concentrations and allowed to reach equilibrium by incubation at r.t. for at least 2 h before analysis proceeded. The myostatin beads were then used to determine the amount of free antibody present in the solution phase samples, by means of the free antibody binding to the myostatin bead matrix then detected using an appropriate secondary antibody (either anti-human or anti-mouse depending on the construct being tested) labelled with a fluorescent dye. The binding curves where fitted using the Kinexa Pro analysis software inherent to the machine. Multiple runs using varying starting concentrations of antibody were then compiled and analysed using the n-curve analysis software to give a more accurate determination of affinity.

[5] = target: T1, recombinant mature dimeric myostatin; assay: myostatin competition ELISA, direct capture of myostatin, competitor 10B3
Description: (§1) A 96-well ELISA plate was coated at 4° C. overnight with 2.5 μg/ml polyclonal Antibody to Myostatin (R&D Systems AF788). This plate was then washed 3-times in wash buffer (PBS, 0.1% Tween-20) and blocked for 1 hour at room temperature with block solution (PBS, 0.1% Tween-20+1% bovine serum albumin [BSA]). Then, myostatin was added at 1 μg/ml in block buffer during 1 hour followed by 3-times in wash buffer. Antibodies were then titrated out to a suitable concentration range (approximately 10 to 0.01 μg/ml), added to the plate and incubated for 1 hour at room temperature. The plate was then washed 3-times in wash buffer. An anti-human kappa light chain HRP-conjugated antibody (Sigma A7164, used according to the manufacturer's instructions) was used to detect binding of humanized or chimeric antibodies, such as 10B3 chimera (HcLc) or H0L0. The plate was then washed 3-times in wash buffer and developed with an OPD substrate (according to the manufacturer's instructions) and read at 490 nm on a plate reader.
The protocol set out in 5.7 was used but the plates were initially coated at 4° C. overnight with 0.2 μg/ml of myostatin (recombinant in-house, see 1.1 above). 10B3 (final concentration of 0.3 μg/ml) was added into each well and mixed with antibodies titrated out to a suitable concentration range (approximately 10 to 0.01 μg/ml). An anti-mouse HRP-conjugated antibody (DAKO P0260, used according to the manufacturer's instructions) was used to detect binding of the 10B3 antibody.

[6] = target: T1, recombinant mature dimeric myostatin; assay: myostatin competition ELISA, polyclonal Ab capture of myostatin, competitor 10B3
Description: as §1
The protocol set out in 5.7 was used with the addition of 10B3 (final concentration of […]) to each well and mixed with the antibodies titrated out to a suitable concentration range (approximately 10 to 0.01 μg/ml). An anti-mouse HRP-conjugated antibody (DAKO P0260, used according to the manufacturer's instructions) was used to detect binding of the 10B3 antibody.

[7] = target: T1, recombinant mature dimeric myostatin; assay: myostatin competition ELISA, biotinylated myostatin on streptavidin, competitor 10B3
Description: The protocol set out in 5.7 was used but the plates were initially coated at 4° C. overnight with 5 μg/ml of streptavidin. Biotinylated myostatin was added at 0.3 μg/ml block buffer during 1 hour followed by 3-times in wash buffer. 10B3 (final concentration of 0.2 μg/ml) was added into each well and mixed with antibodies titrated out to a suitable concentration range (approximately 10 to 0.01 μg/ml). An anti-mouse HRP-conjugated antibody (DAKO P0260, used according to the manufacturer's instructions) was used to detect binding of the 10B3 antibody.

[8] = target: T1, recombinant mature dimeric myostatin; assay: ActRIIb neutralisation ELISA: inhibition of 2 nM biotinylated myostatin binding to coated ActRIIb
Description: Recombinant soluble ActRIIb (R&D Systems 339-RBB) was coated in wells of an ELISA plate at 1 μg/ml in carbonate buffer overnight at 4° C. Plates were blocked with PBS containing 0.1% tween 20 and 0.1% BSA and washed following standard ELISA protocols. In parallel, 2 nM biotinylated myostatin (in-house reagent, described above) was pre-incubated with a dilution series of the antibodies of Tables 21 and 22 for 30 minutes at 37° C. The biotinylated myostatin:antibody reactions were then added (50 μl/well) to the ActRIIb coated plate for 1 hour at 37° C. Standard wash procedures were followed prior to addition of 50 μl per well of a 1:200 diluted streptavidin-HRP conjugate (R&D Systems. #890803) followed by a further 37° C. incubation for 1 hour. Plates were again washed and assayed at absorbance 490 nm following substrate (R&D Systems, #DY999) and acid stop solution treatment.

[9] = target: T1, recombinant mature dimeric myostatin; assay: cell-based or functional assay; remark: listed apart in the source
[10] = target: T1, recombinant mature dimeric myostatin; assay: ActRIIb receptor binding assay: inhibition of biotinylated myostatin binding to coated ActRIIb
Description: Recombinant soluble ActRIIb (R&D Systems 339-RBB) was coated in wells of an ELISA plate at 1 μg/ml in carbonate buffer overnight at 4° C. Plates were blocked (see Block solution above at 2.3) and washed following standard ELISA protocols. In parallel, 2 nM biotinylated myostatin (in-house, as described in 1.1, biotinylated material) was pre-incubated with an antibody dilution series consisting of 10B3, 10B3C, and a negative control (IgG1 isotype control) for 2 hours at 37° C. The biotinylated myostatin:antibody reactions were then added to the ActRIIb coated plate for 1 hour at 37° C. Standard wash procedures were followed prior to addition of 1:1000 diluted streptavidin-HRP conjugate (Dako P0397) and a further 37° C. incubation for 1 hour. Plates were again washed and assayed at absorbance 490 nm following OPD substrate (Sigma) and acid stop solution treatment. Inhibition curves and IC50 values for the inhibition of myostatin activity are shown in FIG. 5 and Table 8 respectively.

| Mean IC50, A204 in vitro activity assay [1] [nM] | rank among the five most potent, top (1) to bottom (5) [5] [rank] | rank among the five most potent, top (1) to bottom (5) [6] [rank] | rank among the five most potent, top (1) to bottom (5) [7] [rank] | Binder | further results |
| --- | --- | --- | --- | --- | --- |
| 3.64 | 2 | 4 | 2 | H2L2-C91S_F100G_Y (antibody, IgG1, wild type IgG1 Fc) heavy: not shown light: DIQMTQSPSSLSASVGDRVTITCKASQDINSYLSWFQQKPGKAPKSLIYRANRLVDGVPSKFSGSGSGTDYTLTISSLQPEDFATYYCLQSDEFPLTFGQGTKLEIKRTVAAPSVFIFPPSDEQLKSGTASVVCLLNNFYPREAKVQWKVDNALQSGNSQESVTEQDSKDSTYSLSSTLTLSKADYEKHKVYACEVTHQGLSSPVTKSFNRGEC | Mean IC50, A204 in vitro activity assay [2]: 11.1 nM; IC50, myostatin responsive reporter gene neutralisation assay (A204) [3]: 23 nM; Kd [4]: 3.68 nM; IC50 [8]: 1.25 nM |
| – | – | – | – | H2L2-C91S_F100G_Y Fc Disabled (antibody, human IgG1, kappa) heavy: QVQLVQSGAEVKKPGASVKVSCKASGYSFTGYFMHWVRQAPGQGLEWMGNIYPYNGVSNYNQRFKARVTMTTDTSTSTAYMELRSLRSDDTAVYYCARRYYYGTGPADWYYDVWGQGTLVTVSSASTKGPSVFPLAPSSKSTSGGTAALGCLVKDYFPEPVTVSWNSGALTSGVHTFPAVLQSSGSLSSVVTVPSSSLGTQTYICNVNHKPSNTKVDKKVEPKSCDKTHTCPPCPAPELAGAPSVFLFPPKPKDTLMISRTPEVTCVVVDVSHEDPEVKFNWYVDGVEVHNAKTKPREEQYNSYVVSVLTVLHQDWLNGKEYKCKVSNKALPAPIEKTISKAKGQPREPQVYTLPPSRDELTKNQVSLTCLVKGFYPSDIAVEWESNGQPENNYKTTPPVLDSDGSFFKKLTVDKSRWQQGNVFSCSVMHEALHNHYTQKSLSLSPGK light: DIQMTQSPSSLSASVGDRVTITCKASQDINSYLSWFQQKPGKAPKSLIYRANRLVDGVPSKFSGSGSGTDYTLTISSLQPEDFATYYCLQSDEFPLTFGQGTKLEIKRTVAAPSVFIFPPSDEQLKSGTASVVCLLNNFYPREAKVQWKVDNALQSGNSQESVTEQDSKDSTYSLSSTLTLSKADYEKHKVYACEVTHQGLSSPVTKSFNRGEC | Mean IC50, A204 in vitro activity assay [9]: 1.24 nM |
| 5.51 | 3 | 2 | 4 | H2L2-C91S_V102N (antibody, V domains shown) VH: QVQLVQSGAEVKKPGASVKVSCKASGYSFTGYFMHWVRQAPGQGLEWMGNIYPYNGVSNYNQRFKARVTMTTDTSTSTAYMELRSLRSDDTAVYYCARRYYYGTGPADWYFDNWGQGTLVTVSS VL: DIQMTQSPSSLSASVGDRVTITCKASQDINSYLSWFQQKPGKAPKSLIYRANRLVDGVPSKFSGSGSGTDYTLTISSLQPEDFATYYCLQSDEFPLTFGQGTKLEIKR | – |
| 5.14 | – | – | – | H2L2-C91S (antibody, IgG1, V domains shown) VH: QVQLVQSGAEVKKPGASVKVSCKASGYSFTGYFMHWVRQAPGQGLEWMGNIYPYNGVSNYNQRFKARVTMTTDTSTSTAYMELRSLRSDDTAVYYCARRYYYGTGPADWYFDVWGQGTLVTVSS VL: DIQMTQSPSSLSASVGDRVTITCKASQDINSYLSWFQQKPGKAPKSLIYRANRLVDGVPSKFSGSGSGTDYTLTISSLQPEDFATYYCLQSDEFPLTFGQGTKLEIKR | Mean IC50, A204 in vitro activity assay [9]: 4.08 nM |
| – | – | – | – | H2L2 C91S_G55S_F100G_Y-Fc disabled (antibody, Fc disabled (L235A, G237A, EU); Light chain L2-C91S by the name; not restated for the disabled form) heavy: not shown light: DIQMTQSPSSLSASVGDRVTITCKASQDINSYLSWFQQKPGKAPKSLIYRANRLVDGVPSKFSGSGSGTDYTLTISSLQPEDFATYYCLQSDEFPLTFGQGTKLEIKRTVAAPSVFIFPPSDEQLKSGTASVVCLLNNFYPREAKVQWKVDNALQSGNSQESVTEQDSKDSTYSLSSTLTLSKADYEKHKVYACEVTHQGLSSPVTKSFNRGEC | IC50 [10]: 0.518 nM |
| 4.22 | 4 | 3 | 1 | H2L2-C91S_V102S (antibody, V domains shown) VH: QVQLVQSGAEVKKPGASVKVSCKASGYSFTGYFMHWVRQAPGQGLEWMGNIYPYNGVSNYNQRFKARVTMTTDTSTSTAYMELRSLRSDDTAVYYCARRYYYGTGPADWYFDSWGQGTLVTVSS VL: DIQMTQSPSSLSASVGDRVTITCKASQDINSYLSWFQQKPGKAPKSLIYRANRLVDGVPSKFSGSGSGTDYTLTISSLQPEDFATYYCLQSDEFPLTFGQGTKLEIKR | – |
| – | – | – | – | H2L2 C91S_G55S F100G_Y (antibody, Fc not disabled) heavy: not shown light: DIQMTQSPSSLSASVGDRVTITCKASQDINSYLSWFQQKPGKAPKSLIYRANRLVDGVPSKFSGSGSGTDYTLTISSLQPEDFATYYCLQSDEFPLTFGQGTKLEIKRTVAAPSVFIFPPSDEQLKSGTASVVCLLNNFYPREAKVQWKVDNALQSGNSQESVTEQDSKDSTYSLSSTLTLSKADYEKHKVYACEVTHQGLSSPVTKSFNRGEC | Mean IC50, A204 in vitro activity assay [2]: 4.42 nM; IC50 [10]: 0.786 nM |
